B1: com-pmiR397b-G-box (dsDNA)
DNA 1: GTACTTTGTCACGTCCTGATCGAT
DNA 2: ATCGATCAGGACGTGACAAAGTAC
B2: bio-pmiR397b-G-box (dsDNA)
DNA 1: GTACTTTGTCACGTCCTGATCGAT
DNA 2: ATCGATCAGGACGTGACAAAGTAC
B3: bio-pCPS2-N-box (dsDNA)
DNA 1: TTTCACAATCACGAGCTAGACTAA
DNA 2: TTAGTCTAGCTCGTGATTGTGAAA

Assays:
[1] = target: T1, bHLH25 (Oryza sativa (Nipponbare), UniProt Q5SMX4 1-439); assay: competition; unlabeled competitor of N1; 10 mM Tris-HCl pH 7.5, 50 mM KCl, 50 ng/mL poly(dI-dC), 1 mM DTT, ~0.5 ug GST protein in 10 uL, 0.5 uM pmiR397b-G-box or 0.1 uM pCPS2-N-box biotin probe; temperature not stated; conditions: protein: recombinant; tags: GST-SUMO (pGEX-6p-1-SUMO); chain copies: 2
T1 sequence (Q5SMX4 entry or part of it): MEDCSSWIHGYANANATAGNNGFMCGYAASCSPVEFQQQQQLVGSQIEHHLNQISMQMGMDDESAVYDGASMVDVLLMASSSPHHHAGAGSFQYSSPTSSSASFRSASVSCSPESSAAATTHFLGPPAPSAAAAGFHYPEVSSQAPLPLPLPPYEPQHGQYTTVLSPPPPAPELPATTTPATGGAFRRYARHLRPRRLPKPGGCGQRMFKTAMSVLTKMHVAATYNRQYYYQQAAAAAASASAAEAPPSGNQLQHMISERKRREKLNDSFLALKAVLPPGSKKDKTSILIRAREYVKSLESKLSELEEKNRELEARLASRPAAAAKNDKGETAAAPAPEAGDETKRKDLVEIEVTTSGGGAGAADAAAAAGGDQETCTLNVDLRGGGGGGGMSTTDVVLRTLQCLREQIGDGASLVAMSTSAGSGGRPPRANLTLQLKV

[2] = target: T1, bHLH25; assay: EMSA; 10 mM Tris-HCl pH 7.5, 50 mM KCl, 50 ng/mL poly(dI-dC), 1 mM DTT, ~0.5 ug GST protein in 10 uL, 0.5 uM pmiR397b-G-box or 0.1 uM pCPS2-N-box biotin probe; temperature not stated; conditions: protein: recombinant; tags: GST-SUMO (pGEX-6p-1-SUMO); chain copies: 2; label: 5' biotin
[3] = target: bHLH25 M256V (Oryza sativa (Nipponbare), UniProt Q5SMX4 1-439, M256V); assay: as above; conditions: protein: recombinant; tags: GST-SUMO; chain copies: 2; label: 5' biotin
Sequence of bHLH25 M256V (Q5SMX4 entry or part of it M256V | M256V M256V): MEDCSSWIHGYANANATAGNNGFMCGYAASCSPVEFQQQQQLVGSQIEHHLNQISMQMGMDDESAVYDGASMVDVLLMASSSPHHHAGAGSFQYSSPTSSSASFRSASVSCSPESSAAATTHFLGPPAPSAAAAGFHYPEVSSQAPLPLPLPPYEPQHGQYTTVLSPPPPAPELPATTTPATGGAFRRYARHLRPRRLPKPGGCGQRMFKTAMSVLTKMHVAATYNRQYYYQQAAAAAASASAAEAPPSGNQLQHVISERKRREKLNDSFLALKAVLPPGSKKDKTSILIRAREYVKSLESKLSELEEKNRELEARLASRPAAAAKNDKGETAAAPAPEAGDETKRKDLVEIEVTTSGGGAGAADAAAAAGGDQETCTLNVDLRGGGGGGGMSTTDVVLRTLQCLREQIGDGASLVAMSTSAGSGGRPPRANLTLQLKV

Binder	binding result [1]	binding result [2]	binding result [3]
B1	binds	–	–
B2	–	binds	no binding
B3	–	binds	no binding
